This note sets out measurements from patent publication US20250027068.

The data set concerns the target pooled human IgG.

B1: PRT-227 (protein)
chain: MEVVEVWPYGQNPNGKTEILSQTEDSESLQRLRDIEDFQAEKKMQNVVYTKWLDGVDVKDHDFRKIVDGNIAYYATPLLNGRGFYDINKDFNRDSDKCAAAVAANMFHYWLDINRDNVDRFLRQNPEKHGIIELPDGQLKLSDFLNTYESDHGYRDKSKLFDFISNNFNGPVWTDKLLDNYINGYAYNYKYGRTIEDPTKNTSKINFFKEVFNEKILTNNHSIRNQNEFSVLLSEALYTGKAIGLSYGPAGLRHSLGHIISVWGADLDADGNVVAIYVTDSDDKKLTIGDERVGLKRYKISTDDENRLRLTAYEETHNTGGQIRGLYTLDTGKYAWADYFDKTEQTGTDQAEQLEHHHHHH
B1 displayed an Enzyme Activity Endpoint Assay (purified): Fab'2 of 22 ng/µL, an Enzyme Activity Endpoint Assay (purified): Fc of 331 ng/µL, an Enzyme Activity Endpoint Assay (purified): IgG of 880 ng/µL and an Enzyme Activity Endpoint Assay (purified): scIgG of 492 ng/µL.

B2: PRT-228 (protein)
chain: MEVVEVWPYGQNPNGKTEILSQTEDSESLQRLRDIEDFQAEKKMQNVVYTKWLDGVDVKDHDFRKIVDGNIAYYATPLLNGRGFYDINKDFNRDSDKCAAAVAANMFHYWLDINRDNVDRFLRQNPEKHGIIELPDGQLKLSDFLNTYESDHGYRDKSKLFDFISNNFNGPVWTDKLLDNYINGYAYNYKYGRTIEDPTKNTSKINFFKEVFNEKILTNNHSIRNQNEFSDLLSEALYTGKAIGLSYGPAGLRHSLGHIISVWGADLDADGNVVAIYVTDSDDKKLTIGDERVGLKRYKISTDDENRLRLTAYEETHNTGGQIRGLWTLDTGKYAWADYFDKTEQTGTDQAEQLEHHHHHH
B2: the Enzyme Activity Endpoint Assay (purified): Fab'2 was found to be 195 ng/µL, the Enzyme Activity Endpoint Assay (purified): Fc was 583 ng/µL, the Enzyme Activity Endpoint Assay (purified): IgG was 767 ng/µL and the Enzyme Activity Endpoint Assay (purified): scIgG stood at 557 ng/µL.

B3: PRT-20 (protein)
chain: MANQEIRYSEATPYHITSVWTKGVTPPANFTQGEDVFHAPYVPNQGWYDITKTFNGKDDLLCGAATAGNMLHWWFDQNKDQIERYLKEHPEKQKINFNGEQMFDVKEAIDTKDSQTDSKLFNYFKEKAFPYLSTKHLGVFPDHVLDMFINGYRLSLTNHGPTPVKEQSKDPRGGIFDAVFTRGDQSTLLTSRHDFKEKTLKEISDLIKKELQEGKALGISHTYANVRINHVINLWGADFNSEGNLEAIYVTDSDSNASIGMKKYYVGVNSAGKVAISAKEIEDDNIGAQVLGLFTLSTGKDIWEQTN
B3: the Enzyme Activity Endpoint Assay: Fab′2 was determined as 48 ng/µL, the Enzyme Activity Endpoint Assay: Fc came out at 124 ng/µL, the Enzyme Activity Endpoint Assay: IgG came to 15 ng/µL and the Enzyme Activity Endpoint Assay: scIgG was determined as 13 ng/µL.

B4: PRT-19 (protein)
chain: MANQEIRYSEESPSVVTSVWTKGVTPPANFTYGEDVFHAPYIANQGWYDITKTFNGKDDLLCGAATAGNMLHWWFDQNKDEIEAYLKKHPEKQKINFNGEQMFDVKEAIDTKDDQTNSKLFNYFKDKAFPYLSTKHLGVFPDHVLDMFINGYRLNLTNHGPTPVKEGSKDPRGGIFDAVFTRGDQSKLLTSRHDFKEKTLKEISDLIKQELTEGKALGLSHTYANVRINHVINLWGADFNSEGNLKAIYVTDSDSNASIGMKKYFVGVNAAGKVAISAKEIKDDNIGAQVLGLFTLSTGQDIWNQTN
On to B4, for which the Enzyme Activity Endpoint Assay: Fab′2 was determined as 42 ng/µL, the Enzyme Activity Endpoint Assay: Fc was found to be 108 ng/µL, the Enzyme Activity Endpoint Assay: IgG stood at 13 ng/µL and the Enzyme Activity Endpoint Assay: scIgG came out at 13 ng/µL.

B5: PRT-21 (protein)
chain: MANQEIRYSEVSPSTVTSVWTKGVTPPTNFTYGEDVLHAPYVANQGWYDITKTFNGKDDLLCGAATAGNMLHWWFDQNKEQIENYLKKHPEKQKINFNGEQMFDVKEAIDTKDSQLDSKLFEYFKEKAFPYLSTKHLGVFPDHVIDMFINGYRLSLTNHGPTPVKRGSKDPRGGIFDAVFTRGDQSKLLTNRHDFKEKTLKEISDLIKQELTEGKALGISHTYANVRINHVINLWGADFDAEGNLEAIYVTDSDSNASIGMKKYFVGVNSNGKVAISAKEIEEDNIGAQVLGLFTLSTGQDIWNQTN
For the protein B5, the Enzyme Activity Endpoint Assay: Fab′2 came to 33 ng/µL, the Enzyme Activity Endpoint Assay: Fc turned out to be 111 ng/µL, the Enzyme Activity Endpoint Assay: IgG stood at 23 ng/µL and the Enzyme Activity Endpoint Assay: scIgG came to 28 ng/µL.
